From the domain aggregation screens of Martell et al. (2025)

Test: soluble fraction after stress (log2 fold change); higher = more stays soluble; pooled small domains, quantitative proteomics
Settings: stress: 75 degC
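Note: 20 min heating vs room temperature control held 20 min.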

Sequence	soluble fraction (log2)
HMKPEDIALLEEIRDLLKEKKSVIVNLEYVNKDVARRIVDFISGGVFALNGHIQKVSNSIFLVAPMN	-0.00621
HMKPMNNNDILRRLRYTFDLSDDKMMETFALGGYEANRSEISDWLKKDDHPEQKSLYDKSLSHFLNGFIV	-0.178
HMKPPVQVIGKAVVTASSLNVRTGPGTGHGIITSLPRNTEVELLEQQGEWYKIRRGSTVGYVHGGYLKIN	-0.311
HMKPRISMITLGVKDLNKSIEFYGGGLGFPRKKTEPEIAIFKLNGSWLSLYNRGLLAEDANVS	-0.184
HMKPSKYTLAIDSIPVHVTRKQMKSIRLRVTPLGEVRVSAPYGVKDSEIVEMVRSRKLWIESQQRA	-2.34
HMKPSTETLYATARINVRAAADTSAEKLGSIEMGEAVVRTGTDGDWSIIEYNGSTGYVKSEYLTANAGDAT	0.232
HMKPSVEIKVNGGTGAGVVKKGGSITVTANEPAEGKVFTGWQDESGKIVSTQKEYTFTVAEGTTLTAVYED	≥ 1.04
HMKPTGWVRGDMGVVDKGQLSITQGTVNVRSGPGLSYEILDQVRRGDRFPVIKSQSGWHNISM	0.249
HMKPTSLLGIERYLGSGLIRGVGPSTAKQIVEHFGMETMEVLTEHPERLQEVHGMGRKRWRQIAESFQEQQ	-0.869
HMKPVTVINFVGMTEEKAMTEAEKLGLVVGASSSEYSDEPAGTVIRQSISVSTEAKTGDNIYFTVSKGPE	0.677
HMKQETLNEIGTKIRKLRESKNLSIQEFADKLEMEYNNVIRIEKGRTNFTIGTLVKIANSLEVNLKDI	-2.41
HMKQFVVQYYGIDGEVINSVYKNGMSDLTSYEPEKIDGKNFKGWSLSEDSKKVIDENYRINSDVNLYAVYT	0.758
HMKQHPTIDLQIGQKLHYKEDVFEVTRFAKDKNGQDMVILKDPSIGSGIEIPWYRSKLEEIIESGQYKIT	0.361
HMKQIEEIIARYTNENTPLMMILSDVQREYGYIPLDVQELISEKTGIPVAEIYGVVTFYSFFSL	-0.676
HMKQISQNIHRLRKEKGMSQEQLAQALHVTRQTVSAWERGIAQPSLDVLGQIAQLLGVEPERLLYGE	0.288
HMKQLQIPYSFAKRHGVLLRYEGDQAFIVRRDNTSMLALQEARRLLGHPAHYLLYSEQEFNQLLSASFA	-2.69
HMKQLVVVPRVVSLSEGKAREDVGDRGLVVDRVEMDTLRTPYENTVTRQEPAADSRVPVGTRVTLWISPGV	0.567
HMKQNSDDGEIRKIIIEILDNNLDNVNKYKSGRTNVLDFFVGQVMKQTRGQANPELTRSILTEELSN	-0.169
HMKQQTRAELLDEFAKAHAERGLYFNRDYEQGEIQALQPDKAREYLQSALEARTERQQASEQDR	0.262
HMKQTDQELAEMLRFRAAQRGLLMSDEVVNYVMTRVERSAKSLIMLLDRIDRAALAQARPVTIPLINEL	-0.523
HMKQVEVPRLVGLTLREAQAVLGQVGLRIGLISRAALLASPREQIVEQIPVAGERNIATPYVNLLVNVP	-0.895
HMKRDEYIAQLKKYLKRLPKKEYDSAIEYFTEYFDEAGPERELEVIQELGQPKEAAKEMLLQLLNE	-0.105
HMKRDNETRRRIVAAAEELFRAKGLDGVNMRELAEMAGVNKGLLHYYFKTKQALFREILVGQMAL	-1.31
HMKRDRLYGITIYLLNHGRTSAKTLAEYFEVSVRTIQRDMDALSMAKIPIIAYPGSDGGYEIQEGYRL	-3.03
HMKRDYELPAFIETYLKKNHVAIDTKSAAMIAEHIGADLSRLISELDKVMISLPDDDRRVTPDVVEREI	-0.0791
HMKREETLKALATKNANYVARSGRRYSFEPMNPYERRIIHTAVQEIEGVTSRSIGSGMDRRVLIEPEGGV	-0.322
HMKRELFVEPGMRLEHTPSKTSGPVVSFIEGVIVVIKDQLGSEHRFDPVPGFFRHEGDLVALRSPLL	-0.996
HMKRIDTILETFAKVHKHIPSKLILLGDGPELLDMRKIARSLHIEDDVLFLGKQDQVSKFYQMADLVLLL	-0.314

Sequence	soluble fraction (log2)
HMKRIHLSDEEKTDLESLHYSSNDGKQRDRIKAVLLRSEGWTVPMISQALRIHETTVTRYLNDYREGKLKN	-0.724
HMKRITKKELKQAIVDVFADKPGQSFNYKQLATIIGIKDDPTRRMITDILYELVQEERIVELYRGKFKMEM	-2.58
HMKRLPFSFAKRFGVVVEDGEPPIVHHRDGASAETLLEVRRRLGQVFTLQRHDAEAFERLLTQAYQR	-1.15
HMKRPEPESPEAERRSQRAADWLVRRDRGLTAAEQDEFLQWLAIDPRHGEWFALHRSVVGEFSA	-0.081
HMKRQDFEFLVNLLRQNAGWDFDEEQYFVVDKKISNFIREKGYASVEDLIDELKVGAKPLISQVVESLAL	-0.576
HMKRTFGEISPLPSGRYRARYRGPDGERYPAPVTFLSRMDAETWLSAQARKVSSGDWTPPVGVVA	-0.34
HMKRWHVGDPIDALTAAGKVPSWSTIRQRFWKTIAALYPDIEQSERLQRGLAMLDEAGTSIELHHP	-1.03
HMKRYLFEEVLAFLKHNDGKSFNYKQLGAAMEIDNESDRFALLETLEELKHQGFVIETDIGKYAAKE	-0.868
HMKSDELTKRRRLQIIEAAERSFRKRGFHATTLREIAAEFGMSVGHIYNYFSGKDAILEALIHQKIDD	-1.01
HMKSKHENLIDGLLKMISSMKPHDRLTPERQLAEEWAVSRMTLRRALEVLQFQGKIYTVPSSGLFVAEPK	-2.89
HMKSKPRVPFGSLVEMGILKPGSILFDPKGKIKTKVMVDGSIKYKETEGSIHKVAAQIMGTESYNGWTYW	0.488
HMKSLDDVISKFRPTGSENKIDFRKRVISEIHAQGFFKIKGSVNHVAKALGVTRYTVYNYLDKLND	-3.65
HMKSLLTHAEEFVRNNNGRWMLAETSSKESYSSKQNFYLRNNYSIISEIRDFYSVGDNLLVFGKFFT	0.201
HMKSNESAELGERMLNKALLALHTDSSKISDTQWQKLLRDYGAKNKQEILTDIGLGKRLNVMVAHQLMAMG	-0.271
HMKSNIGENIRQLREKREMSVERVARMLEVKPATVIGWESGRELPEPAELGLLAKLFDVTVEELN	-0.121
HMKSNKEKIYDFIQMHDTAEKEGGVSTTYIAQALSLQRTNVSSLLNALVEEGRIHKSNGRPVLYSIAG	-0.242
HMKSPAQAAALKKLWAAIKQNEQGEVVEVLFHNRKLTDAGLVHLKGLANLQTLNLYDTKITGAGLVHL	-0.0641
HMKSVLDDVAGLGPVRKKALLKAMGGFTRLRAASLDDILAVRAVPEEVAREVFAVLAQYNSVRNNDISE	-1.08
HMKSVTAPLPGTVTQILVKVGDAVKAGDTVLMLEAMKMENSITAEAAGTVKAIRVEKGAQVQGGDVLIEM	0.157
HMKTAAKVLGESGGKPVTVQSGRYGPYVQLGTIRATLPKDLDQEAVTLDKALELIDAKAERSGK	0.00631
HMKTDFEIDITVKASSLRVVASPGGDELVGTVTRGDRVTQLATPKDGWILIKMTDGRLGYVPESLLLFP	-1.87
HMKTEIGQAMRKLRKAKKMTQDTLAEKLGVAPANISRYEKGQQGIEVDKLPTLADALGVSVPEFFAIASG	0.0367
HMKTELAYDFHSRIRDARIREGLSQVDLAKRMNEKIAVIQKAENGIRPTDSLIAKFSKALSVELYVE	-2.12
HMKTGIIYGVNGPVIYLKGDTGFKISEMVYVGPEKLVGEVIGLKKHMTTVQVFEETTGLKPGETVIGTGDA	-0.378
HMKTGTVQDFIAKYGMSSKSPSSWFNSLTQIQKAEAKALKAQSGLTWNEWYEKNIYNGDGSNL	-0.0584
HMKTKHISIAEGMSLYTRDRSPFYWGYLNIEGVIHKKSLKTDVVDEAIKLLSIWKNELLNSITK	-1.19
HMKTKKYKGVYKDSKGKIYFQIELGVDPITGKRIQKKGRKNQQGLPFNSFKEAYEEILRLKHEFVNSTIN	-3.35
